Patent publication US7172865B2, “Rapid and sensitive assay for the detection and quantification of coregulators of nucleic acid binding factors” (Saint Louis University, priority 2001, dated 2007)

System: CAP5/CAP3 and CAP1/CAP4 duplexes
Assay: two-color simultaneous detection, coumarin-labeled CAP constructs
Format: binding
Conditions: excitation 433 nm, one protein only
From the text: The compatibility of the assays described in the instant invention with a variety of fluorescence probes emitting at different wavelengths allows for the designing of variations in which two or more proteins may be detected simultaneously. Nucleic acid constructs specific for each of the proteins to be detected may be labeled with probes that emit light at different wavelengths. In this example, the reaction mixture contained nucleic acid constructs labeled with 7-diethylaminocoumarin-3-carboxylic acid for detecting CAP protein (described in EXAMPLE 2) and nucleic acid constructs labeled with fluorescein for detecting TrpR protein (described in EXAMPLE 6). Specifically, 100 nM CAP5/CAP3, 120 nM CAP1/CAP4, 100 nM TRP2/TRP3, and 120 nM TRP1/TRP4 duplexes were present in the reaction mixture.
The fluorescence spectra with the excitation at 433 nm (excitation of 7-diethylaminocoumarin-3-carbo acid, FIG. 17A) and with the excitation at 490 nm (excitation of fluorescein, FIG. 17B) were recorded in the absence of the proteins (curves 1), in the presence of CAP only (curves 2), in the presence of TrpR only (curves 3), and in the presence of both CAP and TrpR (curves 4). In the presence of only CAP there was no change in the fluorescein signal (FIG. 17B, curve 2) whereas about 60% quenching of the 7-diethylaminocoumarin-3-carbox acid signal was observed (FIG. 17A, curve 2). […]

B1: CAP: bacterial transcription activator from E. coli which binds DNA in a sequence specific, cAMP-dependent manner (protein, UniProt P0ACJ8 2-210, looked up)
DNA-binding transcriptional …: VLGKPQTDPTLEWFLSHCHIHKYPSKSTLIHQGEKAETLYYIVKGSVAVLIKDEEGKEMILSYLNQGDFIGELGLFEEGQERSAWVRAKTACEVAEISYKKFRQLIQVNPDILMRLSAQMARRLQVTSEKVGNLAFLDVTGRIAQTLLNLAKQPDAMTHPDGMQIKITRQEIGQIVGCSRETVGRILKMLEDQNLISAHGKTIVVYGTR
  quenching of the 7-diethylaminocoumarin-3-carboxylic acid signal: about 60%
